Test results: the MegaScale stability set (Tsuboyama et al. 2023)

B1: 6YSE (parent)
chain: HERALMVNRLQKLTRMLRVHPDPKWKQEQQELIKRLK
B2: r4_43_TrROS_Hall (parent)
chain: DLVTIKVPLENLEEIKKAAEKAGFKIVSISYDKENKEVTIVIEKKK

Variants of: B1
Assay: folding stability dG (cDNA display proteolysis); higher = more stable
Details: PBS, room temperature

Folding stability dG [kcal/mol], by site and new letter:
K26: A 0.85 | N 0.211 | W 0.964
V7: D -0.144 | H 1.09 | G 0.569 | E 1.11
Q27: Y 0.821 | V 0.985 | N 1.09
R18: T 0.657 | I 0.881
M6: R 0.36 | W 0.832 | H 0.07 | S 0.112 | N -0.861 | F -0.384
D22: I 0.677 | K 1.23 | S 1.09 | G 0.117 | H 1.3 | Y 1.14
W25: F 1.25 | K 0.636
R9: Y 0.605 | G -0.612 | V -0.415 | L 0.938
I33: W 0.93 | E -0.101
E31: H 0.812 | Y 1.1 | C 1.69 | A 1.2 | G 0.441 | Q 0.963
E28: V 0.452
Q11: S 1.1 | L 1.69 | I 2.12 | W 1.5 | K 2.12
R15: Y 0.918 | T 0.631 | V 0.95
A4: S 1.06 | T 1.46
V19: L 1.48 | I 1.51 | W 1.21 | T 1.37
L17: I 1.09 | Q -0.895
L32: F -0.201
K12: Y 2.31 | A 1.36 | Q 1.71 | V 1.43 | G -0.272
N8: S 1.67
R35: D -0.514 | K 1.51
L10: Y 0.292 | W -0.405
Q29: I 1.69 | A 1.48
R3: V 1.34 | T 1.06
E2: G 0.782
K34: Y 1.02 | G 0.802 | F 1.2 | Q 1.25
K37: V 0.95 | N 1.24 | F 1.68
P23: W 0.75 | V 0.701 | F 0.718 | K 0.967
L5: N 1.11 | Q 1.61 | W 2.06 | A 1.6 | Y 1.23
K24: A 1.24 | T 1.3 | H 0.889 | Q 1.22 | G 0.85
H1: Q 1.38 | I 1.34 | L 1.36 | S 1.5
P21: N 1.51 | E 1.09 | M 1.13
H20: Q 0.946 | A 0.952 | K 1.57
Q30: I 1.37 | K 0.968 | F 0.851 | M 1.42

Variants of: B2
Assay: as above
Details: PBS, room temperature

Folding stability dG [kcal/mol], by site and new letter:
P8: K 3.71 | H 4.12 | E 3.19 | A 3.6 | I 3.5 | M 3.81 | W 3.7 | N 3.58 | L 3.95 | F 3.75 | R 3.27 | Q 3.53 | S 3.49 | D 3.39 | C 3.58 | Y 3.62 | T 3.68 | V 3.72 | G 3.77
L2: Y 4.08 | C 3.41 | A 3.4 | P 3.23 | T 3.93 | W 3.78 | F 3.76 | S 3.39 | E 3.45 | G 3.42 | Q 3.85 | I 3.13 | V 3.91 | D 3.35 | M 3.66 | H 3.43 | R 3.58 | N 3.23 | K 3.52
N11: V 3.87 | T 3.59 | Q 3.76 | E 3.27 | S 3.42 | K 3.65 | C 3 | L 3.67 | H 3.83 | I 3.73 | A 3.83 | D 3.4 | R 4.15 | F 3.59 | M 3.51 | W 3.63 | Y 4.11 | G 3.34 | P 2.5
V3: E 3.1 | Q 3.65 | W 4.34 | M 3.66 | D 3.18 | L 3.62 | C 3.72 | G 3.13 | T 3.66 | N 3.25 | S 3.62 | K 3.45 | I 3.36 | A 3.33 | P 2.93 | H 3.69 | Y 4.03 | F 4.06 | R 3.4
T4: D 2.98 | R 3.52 | L 3.46 | C 3.44 | F 3.68 | V 3.48 | E 3.5 | Y 4.13 | M 3.65 | N 3.45 | K 3.56 | S 3.78 | A 3.92 | Q 3.38 | W 3.88 | P 3.02 | H 3.64 | G 3.14 | I 3.54
D1: I 3.87 | Q 3.82 | W 4.07 | A 3.81 | H 3.83 | Y 3.87 | P 3.56 | L 3.84 | C 3.7 | S 3.84 | G 3.47 | V 4 | M 4.1 | K 3.81 | N 3.79 | E 3.66 | R 3.42 | T 3.83 | F 3.9
K6: C 3.32 | F 3.62 | S 3.52 | G 2.98 | L 3.31 | Q 3.04 | P 2.42 | V 3.5 | M 3.31 | N 3.37 | R 3.84 | A 3.51 | H 3.71 | T 3.77 | Y 3.48 | W 3.39 | I 3.75 | D 2.82 | E 2.83
L9: Q 3.49 | A 3.66 | H 3.57 | V 3.6 | G 3.08 | K 3.66 | W 3.92 | S 3.47 | P 3.53 | F 3.69 | D 3.42 | T 3.46 | R 3.59 | I 3.61 | M 3.53 | E 3.46 | Y 3.39 | N 3.58
E13: A 3.28 | C 3.74
E10: M 4.03 | V 3.68 | F 3.75 | S 3.85 | I 3.86 | G 3.58 | W 3.79 | H 3.41 | Q 3.52 | A 3.8 | C 3.35 | L 3.59 | T 3.75 | N 4.02 | D 3.29 | P 3.48 | Y 3.77 | R 3.72 | K 3.61
L12: Q 3.25 | P 1.92 | D 2.46 | H 3.41 | W 3.67 | F 3.75 | M 3.77 | Y 3.64 | G 3.16 | I 3.73 | N 2.46 | A 3.63 | K 3.03 | V 3.56 | T 3.23 | R 2.8 | E 3.55 | S 3.38
I5: S 2.9 | D 2.34 | C 3.01 | K 3.27 | T 3.42 | H 3.23 | Y 4.42 | Q 3.15 | M 3.79 | R 3.1 | F 4.32 | L 4.01 | W 4.23 | V 3.79 | E 2.86 | G 1.98 | A 3.14 | N 2.61 | P 1.48
V7: N 2.53 | E 2.93 | A 3.81 | S 3.71 | G 3.46 | Y 3.24 | T 3.57 | M 3.63 | R 3.3 | C 3.66 | L 3.51 | W 3.44 | I 3.6 | P 2.19 | K 3.01 | F 3.46 | Q 3.04 | D 1.97 | H 3.12
